Experimental data taken from US20260217846A1 (University of Texas, published 2026).

B1: Clone 54 4-1BB antibody (IgG2a) (antibody, V domains shown)
VH: EFQLQQSGPELVKPGASVKISCKASGYSFTDYNMNWVKQSNGKSLEWIGVINPNYGTTSYNQKFKGKATFTVDQSSSTAYMQLNSLTSEDSAVYYCARSPVEDYFDYWGQGTTLTVSS
VL: ENVLTQSPAIMSASPGEKVTMTCRARSSVSSSYLHWYQQKSGASPKLWIYSTSNLASGVPARFSGSGSGTSYSLTISSVEAEDAATYYCQQYSGYPLITFGAGTKLELKR
notes: Mouse hybridoma antibody, IgG2a; also called Curranlumab; hybridoma clone 271-54 41-BB
B2: Clone 49A 4-1BB antibody (IgG1) (antibody, V domains shown)
VH: VKLQQSGPELVKPGASVKISCKASGYTFTDYYMNWVKESHGKSLEWIGDINPNNGGSTYYNQKFKGKATLTVEKSSSTAFMELRSLTSEDSAVYYCARSLYGSTYYFDYWGQGTPLTVSS
VL: DIVLTQSPASLAVSLGQRATISCKASQSVDYDGDSYMNWYQQKPGQPPKLLIYAASNLESGIPARFSGSGSGTDFTLNIHPVEEEDAGTYYCQQSNDDPWTFGGGTKLEIK
notes: Mouse hybridoma antibody, IgG1
B3: Clone 138 4-1BB antibody (IgG2b) (antibody, V domains shown)
VH: VQLQESGGGLVKPGGSLKLSCAASGFTFSDYGMHWVRQAPEKGLEWVAYISSGSNSIYYADTVTGRFTISRDNAKNTLFLQMTSLRSEDTAMYYCASNNGYFYFDYWGQGTTLTVSS
VL: IVITQSPAILSASPGEKVTMTCRASSSVSYMHWYQQKPGSSPKPWIYATSNLASGVPARFSGSGSGTSYSLTVSRVEAEDAATYYCQQWSSDPFTFGSGTKLEIK
notes: Mouse hybridoma antibody, IgG2b

Biological target: T1, recombinant human 4-1BB (human, UniProt Q07011 24-186, limits assumed)
T1 construct: The ELISA antigen is called only 'recombinant human 4-1BB'; also called CD137; TNFSFR
Assay: ELISA titration on recombinant human 4-1BB

| Binder | binding result |
| --- | --- |
| B1 | binds |
| B2 | binds |
| B3 | binds |
